Substitutions are numbered along the chain they refer to. Each block holds one binder with its values, some of them ahead of it.
Target: human serum albumin (human) (UniProt P02768)
Assay: primary solution ELISA screen

Chain of human serum albumin (human) (P02768 25-609 limits assumed): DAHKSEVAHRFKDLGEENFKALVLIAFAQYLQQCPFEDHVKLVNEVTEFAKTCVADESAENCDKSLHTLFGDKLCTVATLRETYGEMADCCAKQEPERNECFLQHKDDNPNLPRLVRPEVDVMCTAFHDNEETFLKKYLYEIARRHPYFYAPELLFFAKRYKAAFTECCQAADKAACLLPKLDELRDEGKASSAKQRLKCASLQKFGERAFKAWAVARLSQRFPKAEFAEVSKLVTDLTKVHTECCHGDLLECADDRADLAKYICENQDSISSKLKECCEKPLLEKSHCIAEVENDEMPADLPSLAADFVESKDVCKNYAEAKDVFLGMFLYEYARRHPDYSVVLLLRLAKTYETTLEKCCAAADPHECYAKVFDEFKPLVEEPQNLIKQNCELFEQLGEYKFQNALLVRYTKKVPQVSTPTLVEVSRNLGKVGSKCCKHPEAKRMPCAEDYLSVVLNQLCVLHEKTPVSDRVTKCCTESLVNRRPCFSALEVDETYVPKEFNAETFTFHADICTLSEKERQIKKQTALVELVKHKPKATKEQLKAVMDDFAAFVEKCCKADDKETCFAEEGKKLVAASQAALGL

B1: SEQ ID NO 30 (designed binder, not shown: small tags and cut ends)
chain: MLPAPKNLVVSRVTEDSARLSWTAPDAAFDSFIIHYVEQQLIGEAIVLTVPGSERSYDLTGLKPGTEYPVPITGVKGGACSWPLSAIFTT
- RLU: 4450 RLU

B2: SEQ ID NO 27 (designed binder, not shown: small tags and cut ends)
chain: MLPAPKNLVVSRVTEDSARLSWTAPDAAFDSFRISYAETVRQGEAIVLTVPGSERSYDLTVETGYRNWVMILGVKGGPGSLPLSAIFTT
- RLU: 2350 RLU

B4: SEQ ID NO 29 (designed binder, not shown: small tags and cut ends)
chain: MLPAPKNLVVSRVTEDSARLSWTAPDAAFDSFWIEYWEAVGFGEAIVLTVPGSERSYDLTGLKPGTEYFVGIYGVKGGYLSAPLSAIFTT
- RLU: 3750 RLU

B6: SEQ ID NO 12 (designed binder, not shown: small tags and cut ends)
chain: MLPAPKNLVVSRVTEDSARLSWTAPDAAFDSFFIPYAEPSPTGEAIVLTVPGSERSYDLTGLKPGTEYSVLIHGVKGGHLSDPLSAISTT
- RLU: 49000 RLU

B8: SEQ ID NO 24 (designed binder, not shown: small tags and cut ends)
chain: MLPAPKNLVVSRVTEDSARLSWTAPDAAFDSFMIRYQEGTRWGEAIVLTVPGSERSYDLTGLKPGTEYIVMIAGVKGGQISLPLSAIFTT
- RLU: 6550 RLU

B11: SEQ ID NO 15 (designed binder, not shown: small tags and cut ends)
chain: MLPAPKNLVVSRVTEDSARLSWQGVARAFDSFLITYREQIFAGEVIVLTVPGSERSYDLTGLKPGTECPVWIQGVKGGSPSAPLSAEFTT
- RLU: 14400 RLU

B13: SEQ ID NO 3 (designed binder, not shown: small tags and cut ends)
chain: MLPAPKNLVVSRVTEDSARLSWTAPDAAFDSFNIEYAETRWYGEAIVLTVPGSERSYDLTGLKPGTEYVVPIDGVKGGIASKPLSAIFTT
- RLU: 9950 RLU

B14: SEQ ID NO 31 (designed binder, not shown: small tags and cut ends)
chain: MLPAPKNLVVSRVTEDSARLSWTAPDAAFDSFTIEYSEHPIDGEAIPLFVPGSERSYDLTGLKPGTEYYVRIHGVKGGWFSHPLWAFFTT
- RLU: 4650 RLU

B16: SEQ ID NO 25 (designed binder, not shown: small tags and cut ends)
chain: MLPAPKNLVVSRVTEDSARLSWTAPDAAFDSFPIWYLEKSYQGEAIVLTVPGSERSYDLTGLKPGTEYVVPIIGVKGGRDSCPLSAIFTT
- RLU: 3850 RLU

B18: SEQ ID NO 19 (designed binder, not shown: small tags and cut ends)
chain: B1 chain with I33A, H35T, V37T, Q39A, Q40A, I42C, T73N, A79G, C80T, W82G
- RLU: 17900 RLU

B22: SEQ ID NO 17 (designed binder, not shown: small tags and cut ends)
chain: B1 chain with I33P, H35L, V37T, Q39C, Q40V, L41Y, I42R, P69H, A79G, C80G
- RLU: 3650 RLU

B23: SEQ ID NO 21 (designed binder, not shown: small tags and cut ends)
chain: MLPAPKNLVVSRVTEDSARLSWTAPDAAFDSFSIRYNEFIVAGEAIVLTVPGSERSYDLTGLKPGTEYDVPIAGVKGGGASWPLSAIVTT
- RLU: 6850 RLU

B24: SEQ ID NO 13 (designed binder, not shown: small tags and cut ends)
chain: MLPAPKNLVVSRVTEDSARLSWTAPDAAFDSFLIAYPEDGFRGEAIVLTVPGSERSYDLTGLKPGTEYPVPILGVKGGGGSGPLSAIFTT
- RLU: 24600 RLU

B25: SEQ ID NO 18 (designed binder, not shown: small tags and cut ends)
chain: B24 chain with L33N, A35M, P37H, D39I, G40I, F41Y, R42V, L73E, G80T
- RLU: 10400 RLU

B26: SEQ ID NO 20 (designed binder, not shown: small tags and cut ends)
chain: MLPAPKNLVVARVTEDSARLSWTAPDAAIDSFPIDYSEYWWGGEAIVLTVPGSERSYDLTGLKPGTEYPVLITGVKGGYRSGPLSAIFTT
- RLU: 18400 RLU

B27: SEQ ID NO 2 (designed binder, not shown: small tags and cut ends)
chain: MLPAPKNLVVSEVTEDSARLSWQGVARAFDSFMINYSELFWMGEAIVLTVPGSERSYDLTGLKPGTEYVVRIKGVKGGKGSWPLHAHFTT
- RLU: 28400 RLU

B29: SEQ ID NO 23 (designed binder, not shown: small tags and cut ends)
chain: MLPAPKNLVVSRVTEDSARLSWTAPDAAFDSFAIWYHEWYGDGEAIVLTVPGSERSYDLTGPKPGTEYRVRISGVKGGFESGPLSAIFTT
- RLU: 12600 RLU

B30: SEQ ID NO 22 (designed binder, not shown: small tags and cut ends)
chain: MLPAPKNLVVSRVTEDSARLSWTAPDAAFDSFWYLELQFAGEAIVLTVPGSERSYDLTGLKPGTEYNVPITGVKGGIISFPLSAIFTT
- RLU: 30000 RLU

Now from value to binder:

- RLU: 6500 RLU
B3: SEQ ID NO 89 (designed binder, not shown: small tags and cut ends)
chain: B4 chain with K6E, W37Y, A39G, G41I, F42Q, G71A, Y73W, Y79K, L80W, A82V

- RLU: 15200 RLU
B5: SEQ ID NO 96 (designed binder, not shown: small tags and cut ends)
chain: MSLPAPKNLVVSRVTEDSARLSWTAPDAAFDSFPIAYLEVFYEGEAIVLTVPGSERSYDLTGLKPGTEYQVPIEGVKGGAMSLPLSAIFTT

- RLU: 9850 RLU
B7: SEQ ID NO 99 (designed binder, not shown: small tags and cut ends)
chain: B6 chain with A86V, S88F

- RLU: 87200 RLU
B9: SEQ ID NO 94 (designed binder, not shown: small tags and cut ends)
chain: B11 chain with R12E, C68Y, E87I

- RLU: 4550 RLU
B10: SEQ ID NO 32 (designed binder, not shown: small tags and cut ends)
chain: B11 chain with C68Y, P69G, W71T, Q73A, S79W, P80R, A82K, S85N, F88S

- RLU: 39700 RLU
B12: SEQ ID NO 102 (designed binder, not shown: small tags and cut ends)
chain: B11 chain with C68Y

- RLU: 5150 RLU
B15: SEQ ID NO 100 (designed binder, not shown: small tags and cut ends)
chain: B16 chain with P33Y, L37E, K39V, S40M, Q42L, V69N, I73P, R79H, D80S, C82P

- RLU: 3650 RLU
B17: SEQ ID NO 87 (designed binder, not shown: small tags and cut ends)
chain: MLPAPKNLVVSRVTEDSARLSWTAPDAAFDSFAIEYTEFLYSGEAIVLTVPGSERSYDLTGLKPGTEYGVPINGVKGGFVSPPLSAIVTT

- RLU: 4750 RLU
B19: SEQ ID NO 93 (designed binder, not shown: small tags and cut ends)
chain: MLPAPKNLVVSRVTEDSARLSWTAPDAAFDSFAIEYYEPVPAGEAIYLDVPGSERSYDLTGLKPGTEYDVTIYGVKGGYYSHPLFASFTT

- RLU: 12400 RLU
B20: SEQ ID NO 90 (designed binder, not shown: small tags and cut ends)
chain: MLPAPKNLVVSRVTEDSARLSWQGVARAFDSFLITYREQIFAGEVIVLTVPGSERSYDLTGLKPGTEYPVWIQGVKGGSPSAEFTT

- RLU: 24200 RLU
B21: SEQ ID NO 88 (designed binder, not shown: small tags and cut ends)
chain: MLPAPKNLVVSRVTEDSARLSWTAPDAAFDSFPIKYREVLRCGEAIVLTVPGSERSYDLTGLKPGTEYTVPITGVKGGFGSSPLSAIFTT

- RLU: 6500 RLU
B28: SEQ ID NO 97 (designed binder, not shown: small tags and cut ends)
chain: MLPAPKNLVVSRVTEDSARLSWTAPDAAFDSFHIWYEEETTIGEAIYLHVPGSERSYDLTGLKPGTEYEVHITGVKGGPYSRPLFANFTT
